± gives the standard deviation of the averaged measurements.
What follows are sequences tested on ATP (assay: switch fluorescence ratio, 500 uM ATP over buffer (Cy3 cluster intensity, sum of 5 cycles each) (fold (ratio)); higher = stronger signal-on switching upon ATP binding; sequences stand for … in TCGTCGGCAGCGTCAGATGTGTATAAGAGACAGTTTTTTTTTTTTTTTTTTTTTTTTT…TC). Conditions: aptamer strand: ATP DNA aptamer (quencher-CACCTGGGGGAGTATTGCGGAGGAAGG + anchor), 100 nM annealed; ATP concentration: 500 uM.
Outline: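 Cy3-labelled switching-strand clusters on a modified Illumina MiSeq flow-cell were annealed to 100 nM quencher-labelled ATP aptamer, imaged in selection buffer, then imaged after 15 min with 500 uM ATP at 22 °C. Five buffer/ATP cycles ran, with NaOH stripping and re-annealing between them. The fluorescence ratio is summed target-cycle over summed buffer-cycle Cy3 intensity per cluster, averaged per switch-domain sequence. Clusters outside 100-1000 RFU were excluded.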
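Note: ATP exposure 15 min at 22 °C before imaging.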

Sequence	switch fluorescence ratio
TTCATTTCGG	1.001 ± 0.0025
CGCCGGGTGC	2.75 ± 0.43
AAGCCTTTTT	1.01 ± 0.019
GGGTTATGGA	0.971 ± 0.021
CGAGGAGGGC	0.974 ± 0.019
ACTGATGGAC	1.06 ± 0.027
ATATTAGGCA	1.01 ± 0.037
GTTGTTCGGT	1.01 ± 0.015
GTAAGGTAAG	1.05 ± 0.015
AGGGATTTGT	1.028 ± 0.003
GCTGTTTTTA	0.981 ± 0.022
TAAACGGGGA	0.986 ± 0.057
CTTCGGAGGT	1.028 ± 0.0037
TGTGTCCTGC	0.965 ± 0.016
TGAAGTTAGC	0.977 ± 0.011
TTTGGGGTTG	0.999 ± 0.037
ACACGTTGGC	1.05 ± 0.06
TGTGGTGAA	1.01 ± 0.011
TTTGAGACGG	0.99 ± 0.019
TTTCAAAAGT	1.006 ± 0.006
AGTGAGCTAT	1.01 ± 0.018
TATCACTTCC	1.96 ± 0.023
GGGTACTCGC	1.03 ± 0.065
CATTTAGTAT	1.01 ± 0.013
GGCACTAGGG	0.94 ± 0.077

Sequence	switch fluorescence ratio
AGAATATTTT	0.963 ± 0.011
GCCTTACCTG	1.05 ± 0.012
GATTATTGGT	0.987 ± 0.031
CGGAATTTC	1.11 ± 0.05
TTGGCTTACT	1.11 ± 0.11
GACTTAGTGG	1.03 ± 0.077
AAGCCAAATG	0.994 ± 0.029
GGTGAAGTCA	1 ± 0.024
TGTTCGCATG	1.08 ± 0.032
ACGATAGGGG	1.03 ± 0.031
CGAGATGTTA	0.993 ± 0.015
CGGAGTTACA	1.068 ± 0.0072
ACAAGTGACG	0.988 ± 0.026
ATTAGGGGAT	1.01 ± 0.018
AATGAACGTT	1.03 ± 0.078
TCGTGGAGGT	0.985 ± 0.036
CTAGTTGGTC	0.981 ± 0.033
ATGAGTGTGG	1.02 ± 0.021
AGATGCCGGA	1 ± 0.027
TATTACTCGT	1.01 ± 0.07
TGCGGGGGGC	0.991 ± 0.012
CGTATTACAC	1.045 ± 0.0033
CGCTCCGCCT	2.36 ± 0.11
AAGTGAATAT	1.012 ± 0.0095
AAACATACCT	1.4 ± 0.078

Sequence	switch fluorescence ratio
GCAGGGATAC	3.4 ± 0.048
TTTACGCGGG	1.04 ± 0.075
GGTGTAGCTT	1.014 ± 0.0083
GGTGTAATGG	1.04 ± 0.04
GCAGTCCCGT	1.03 ± 0.015
AGGGGGTATG	0.983 ± 0.014
AAAGCTTGAT	1.01 ± 0.02
GGTTCTTATA	1.046 ± 0.008
GGGGACTTAT	1.02 ± 0.017
GCATTTGGCC	0.999 ± 0.012
ACTATTTGTT	1.04 ± 0.027
GCTGGGGCGG	0.98 ± 0.029
TTGGTATTTG	0.993 ± 0.018
CCCCTTGGGG	1.036 ± 0.0031
GGGACTATTT	1.01 ± 0.013
CGAGTAACGC	1.03 ± 0.015
TGTTGAAGAT	1.005 ± 0.0076
TTGTGCTGCC	1.05 ± 0.027
GGGGAGCTAC	1.17 ± 0.038
CGTCATTAAG	0.9994 ± 0.0054
AGTTTTGGGC	0.976 ± 0.016
ACCGCGGGGG	1.03 ± 0.034
TGGATTTGGT	0.988 ± 0.012
TAATGGAGGC	1.05 ± 0.13
GACGGTTATT	1.002 ± 0.0036

Sequence	switch fluorescence ratio
AGGATGGAGT	0.987 ± 0.031
ACTGGAGGAT	1.05 ± 0.013
TCCTGGGCTA	1.57 ± 0.019
GTTTGCCCTG	0.99 ± 0.022
GAAAAAGGTT	0.969 ± 0.011
TTCTGTTAGA	1 ± 0.012
CCGTTCCCGT	1.13 ± 0.028
AGACTCTGGT	0.969 ± 0.015
AGGGCCTTAG	0.9733 ± 0.009
GCGAAAACGC	1.04 ± 0.039
GGGTCAAGGA	0.995 ± 0.019
GGAATCAAGG	1.02 ± 0.035
GTGTAATTGG	1.018 ± 0.0058
TTCAAATGCT	0.998 ± 0.013
TGGTTGGGCC	0.985 ± 0.06
CAATGTTCGA	0.981 ± 0.01
GTCGGTTGGA	0.977 ± 0.036
GGATAGAGCT	1 ± 0.034
GATTTTCCAT	1.03 ± 0.021
TGGGGTATTA	0.998 ± 0.018
GGTAAATATG	1 ± 0.019
AGTGTTCGTC	1.05 ± 0.011
TTGAGCTGTT	0.981 ± 0.033
TAATAAAGTT	1.02 ± 0.018
TATTTATTAG	0.991 ± 0.029

From the supplement of paper PMC10126150
